Data: US10350158B2, “2′ fluoro-modified RNAs as immunostimulators” (DUKE UNIVERSITY, priority 2013, dated 2019)
Strand notation (5' to 3'): a small letter for the sugar, then the base; units joined by * are phosphorothioate-linked, units joined directly phosphodiester-linked; [ ] holds rarer units or linkages, { } end groups; capitals alone tell only the bases. {ppp} = triphosphate; r = 2'-OH (RNA); f = 2'-fluoro

How the values were obtained:
Human TLR7 = target: T1, Human TLR7 (Homo sapiens, UniProt Q9NYK1); test: IL-8 production by human TLR7-expressing HEK293 cells; type: cell-based
T1 construct: expressed in transfected cells; host or cells: HEK293 (HEK-TLR7), gift of Dr. Todd Brennan, Duke University
T1 sequence (Q9NYK1 27-1049): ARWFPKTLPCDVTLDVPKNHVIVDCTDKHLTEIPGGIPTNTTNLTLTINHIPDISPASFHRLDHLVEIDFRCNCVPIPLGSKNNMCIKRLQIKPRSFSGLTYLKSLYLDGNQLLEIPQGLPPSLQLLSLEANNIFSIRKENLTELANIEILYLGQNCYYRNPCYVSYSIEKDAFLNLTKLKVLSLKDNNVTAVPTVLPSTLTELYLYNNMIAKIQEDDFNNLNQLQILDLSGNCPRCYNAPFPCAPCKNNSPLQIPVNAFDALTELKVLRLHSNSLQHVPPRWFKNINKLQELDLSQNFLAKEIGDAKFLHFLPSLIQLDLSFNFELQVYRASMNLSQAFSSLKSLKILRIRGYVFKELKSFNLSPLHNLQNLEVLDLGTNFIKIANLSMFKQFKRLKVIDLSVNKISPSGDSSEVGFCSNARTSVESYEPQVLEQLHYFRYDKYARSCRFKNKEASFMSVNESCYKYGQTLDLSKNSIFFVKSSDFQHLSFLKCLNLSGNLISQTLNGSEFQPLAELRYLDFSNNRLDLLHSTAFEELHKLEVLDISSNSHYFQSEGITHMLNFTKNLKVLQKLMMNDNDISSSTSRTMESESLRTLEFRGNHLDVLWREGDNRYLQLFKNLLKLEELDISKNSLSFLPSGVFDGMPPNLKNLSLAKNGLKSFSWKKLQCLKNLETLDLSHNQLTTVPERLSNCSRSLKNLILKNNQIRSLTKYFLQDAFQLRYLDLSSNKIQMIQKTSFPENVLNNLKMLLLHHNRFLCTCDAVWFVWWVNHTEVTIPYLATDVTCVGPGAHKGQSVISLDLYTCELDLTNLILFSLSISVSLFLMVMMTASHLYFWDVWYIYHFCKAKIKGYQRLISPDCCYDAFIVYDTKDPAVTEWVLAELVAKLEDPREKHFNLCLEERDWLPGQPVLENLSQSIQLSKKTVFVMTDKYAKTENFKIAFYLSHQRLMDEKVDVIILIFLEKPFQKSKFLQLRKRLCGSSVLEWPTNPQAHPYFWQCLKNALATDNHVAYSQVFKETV
Method: The human TLR3 reporter cell, HEK-hTLR3-NFκB/SEAP was purchased from Invivogen. These cells were stably co-transfected with the human TLR3 gene and an inducible SEAP (secreted embryonic alkaline phosphatase) reporter gene into HEK293 cells. The SEAP gene is placed under the control of NF-κB and AP-1. […] SEAP gene expression was measured using the SEAP detection media QUANTI-BLUE (Invivogen), according to the manufacturer's instructions. FIG. 3B is a graph showing that TLR7 is not stimulated by the ssRNAs. Human TLR7-expressing HEK293 cells were kindly provided by Dr. Todd Brennan (Duke University, Durham, N.C.). Treatment with R848 but not with polyI:C, polyI:C-DF and 5′ppp 2′F 10F-DF complexes stimulated HEK-TLR7 cells to produce the inflammatory cytokine IL-8. The data represent the mean of two experiments. Error bars represent the S.D.

[1] = Serum stability in 10% fetal bovine serum, polyacrylamide gel; type: in vitro ADME; conditions: 37° C., 0 to 24 h
Method: FIG. 6A-FIG. 6D are a set of graphs showing that 2′F modification increases nuclease resistance, cytotoxicity and inflammatory cytokine induction of immunostimulatory 5′ppp ssRNAs. FIG. 6A is a graph showing ability of various modified ssRNAs to inhibit the growth of cells over concentration ranges. WM266-4 cells were treated with transfection reagent alone (mock) or the complex of transfection reagent and 5′ppp 10F containing 2′F pyrimidine, 2′OMe pyrimidine or unmodified pyrimidine (2′OH) at various concentrations. The viral dsRNA analog PolyI:C was used as an experimental control. Growth inhibition was assessed at 72 h post treatments using the MTT assay. FIG. 6B is a set of graphs showing cytokine induction after treatment with the indicated ssRNAs. WM266-4 cells were either treated with transfection reagent alone (mock) or the complex of transfection reagent and 5′ppp 2′OH 10F, 5′ppp 2′F 10F, 5′ppp 2′OMe 10F or poly I:C (0.5 μg/ml each). The secretion of IFNβ and IL-8 by the melanoma cells was analyzed at 24 h after treatment by ELISA. The data represent the mean of three experiments. Error bars represent the S.D.; *P<0.05 (5′ppp 2′F 10F vs 5′ppp 2′OH 10F); P<0.001 (5′ppp 2′OMe 10F vs 5′ppp 2′OH 10F). […] RNAs were analyzed on 12% polyacrylamide gels. […] At 4 h, 8, 12 and 24 h after transfection, total RNAs were isolated and cellular 10F RNA levels were analyzed by RT-PCR. […]

B1: 10F: 5′ppp 2′F pyrimidine ssRNA aptamer, 71 nt, human melanocytic cell-targeting, SEQ ID NO: 4 (nucleic acid)
chain: {ppp}-rGrGrGrArGrGrAfCrGrAfUrGfCrGrGfUrAfCfCfUrGrAfCrArGfCrAfUfCfUfUrGrAfUrArAfUrGrGfUfCfCfUrAfCrGrGrArGfCfCrGfUfUfCfCrArGrAfCrGrAfCfUfCrGfCfCfCrGrA
Human TLR7
  stimulation of HEK-TLR7 cells to produce IL-8: not
[1]
  serum stability: resistant to serum degradation
